# Source: publication PMC12102759
# B1: KIAA1671 peptide 600-615 (Uncharacterized protein KIAA1671), 16-mer library wild type / MDM2 SWIB (MDM2 SWIB/MDM2 domain, residues 17-125) (parent)
# chain 1: TPEDDRSFQTVWATVF
# chain 2: SQIPASEQETLVRPKPLLLKLLKSVGAQKDTYTMKEVLFYLGQYIMTKRLYDEKQQHIVYCSNDLLGDLFGVPSFSVKEHRKIYTMIYRNLVVVNQQESSDSGTSVSEN
# B2: AMOTL2 peptide 66-81 (Angiomotin-like protein 2), 16-mer library wild type / TNKS ANK (TNKS 12 ANK repeats, residues 174-649) (parent)
# chain 1: LQQATRQEPQGQEHQG
# chain 2: TGVPAVSGALRELLEACRNGDVSRVKRLVDAANVNAKDMAGRKSSPLHFAAGFGRKDVVEHLLQMGANVHARDDGGLIPLHNACSFGHAEVVSLLLCQGADPNARDNWNYTPLHEAAIKGKIDVCIVLLQHGADPNIRNTDGKSALDLADPSAKAVLTGEYKKDELLEAARSGNEEKLMALLTPLNVNCHASDGRKSTPLHLAAGYNRVRIVQLLLQHGADVHAKDKGGLVPLHNACSYGHYEVTELLLKHGACVNAMDLWQFTPLHEAASKNRVEVCSLLLSHGADPTLVNCHGKSAVDMAPTPELRERLTYEFKGHSLLQAAREADLAKVKKTLALEIINFKQPQSHETALHCAVASLHPKRKQVTELLLRKGANVNEKNKDFMTPLHVAAERAHNDVMEVLHKHGAKMNALDTLGQTALHRAALAGHLQTCRLLLSYGSDPSIISLQGFTAAQMGNEAVQQILSESTPIRTSD
# B3: SH3BP2 peptide 408-423 (SH3 domain-binding protein 2), 16-mer library wild type / TNKS ANK (TNKS 12 ANK repeats, residues 174-649) (parent)
# chain 1: PQLPHLQRSPPDGQSF
# chain 2: B2 chain 2
# Variants of: B1
# Experiment: proteomic peptide phage display deep mutational scan (ProP-PD DMS): M13 P8 16-mer library selected against immobilised GST-tagged bait for four days (rounds), NGS of the eluted pools per day and pseudo-replica
# Settings: with MDM2 SWIB (MDM2 SWIB/MDM2 domain, residues 17-125); bait immobilised on MaxiSorp plates (10 µg), library pre-cleared on GST, 2 h binding at 4 °C, five washes; one round per day, days 1-4; value from days 2 and 3; keep out of graded; scale: average fractional NGS count over selection days 2 and 3
row,Variant,screen value
1,chain 1 P2D,6.18e-05
2,chain 1 P2R,3.9e-05
3,chain 1 P2L,6.52e-05
4,chain 1 P2H,4.89e-05
5,chain 1 P2A,8.35e-05
6,chain 1 P2S,7.3e-05
7,chain 1 P2Y,0.000913
8,chain 1 P2F,5.33e-05
9,chain 1 P2T,0.000455
10,chain 1 P2Q,9.58e-05
11,chain 1 P2V,3.63e-05

# Further lines, results first:
row,screen value,Variant
1,2.89e-05,chain 1 T14A
2,0.000664,chain 1 T14N
3,9.35e-05,chain 1 T14D
4,0.000103,chain 1 T14W
5,0,chain 1 W12N
6,0,chain 1 W12D
7,0,chain 1 W12R

# Variants of: B2
# Experiment: as above
# Settings: with TNKS ANK (TNKS 12 ANK repeats, residues 174-649); bait immobilised on MaxiSorp plates (10 µg), library pre-cleared on GST, 2 h binding at 4 °C, five washes; one round per day, days 1-4; value from days 2 and 3; keep out of graded; scale: average fractional NGS count over selection days 2 and 3
row,Variant,screen value
1,chain 1 LQQATRQEPQGQEYQG,8.4e-05
2,chain 1 LQQATRQEPQGQEDQG,0
3,chain 1 LQQATRQEPQGQEPQG,6.39e-05
4,chain 1 LQQATRQEPQGQETQG,3.21e-05
5,chain 1 LQQATREEPQGQEHQG,2.83e-05
6,chain 1 LQQATRIEPQGQEHQG,0.0001
7,chain 1 LQQATRDEPQGQEHQG,2.19e-05
8,chain 1 LQQATRQEPQLQEHQG,0
9,chain 1 LQQATRQEPQNQEHQG,5.06e-05
10,chain 1 LQQATRQNPQGQEHQG,0.000167
11,chain 1 LQQATRQIPQGQEHQG,6.96e-05
12,chain 1 LQQATRQEPQGQGHQG,5.19e-05
13,chain 1 LQQATRQEPQGQWHQG,1.87e-05
14,chain 1 LQQATRQEPQGQKHQG,0
15,chain 1 LQQATRQEPQGQTHQG,1.94e-05
16,chain 1 LQQATRQEPQGQFHQG,1.87e-05
17,chain 1 LQQATRQEPQGQRHQG,0

row,Variant,screen value
1,chain 1 LQQATRQEPQGQPHQG,3.32e-05
2,chain 1 LQQATRQEPQGQDHQG,6.42e-05
3,chain 1 LQQATRQELQGQEHQG,0
4,chain 1 LQQATRQEVQGQEHQG,9.22e-05
5,chain 1 LQQATRQEYQGQEHQG,0
6,chain 1 LQQATRQESQGQEHQG,0
7,chain 1 LQQATRQEIQGQEHQG,6.68e-05
8,chain 1 LQQATRQEGQGQEHQG,0
9,chain 1 LRQATRQEPQGQEHQG,0
10,chain 1 LFQATRQEPQGQEHQG,3.49e-05
11,chain 1 LQMATRQEPQGQEHQG,3.03e-05
12,chain 1 LQEATRQEPQGQEHQG,9.57e-05
13,chain 1 LQKATRQEPQGQEHQG,2.25e-05
14,chain 1 LQIATRQEPQGQEHQG,0.000108
15,chain 1 LQRATRQEPQGQEHQG,0
16,chain 1 LQQETRQEPQGQEHQG,4.24e-05
17,chain 1 RQQATRQEPQGQEHQG,2.19e-05

# Results, then the variant that gave them:
row,screen value,Variant
1,6.42e-05,chain 1 LQQATRQEPQGVEHQG
2,9.71e-05,chain 1 LQQATRQEPQGTEHQG
3,3.04e-05,chain 1 LQQATRQEPQGGEHQG
4,5.3e-05,chain 1 LQQATRQEPQGKEHQG
5,4.24e-05,chain 1 LQQATRQEPQGEEHQG
6,0,chain 1 LQQATRQEPQGDEHQG
7,5.26e-05,chain 1 LQQATRQEPQGSEHQG
8,2.19e-05,chain 1 LQQATRQEPQGNEHQG
9,0,chain 1 LQQATRREPQGQEHQG
10,0.000105,chain 1 LQQATRSEPQGQEHQG
11,3.15e-05,chain 1 LQQATRQEPRGQEHQG
12,6.99e-05,chain 1 LQQATRQEPVGQEHQG
13,0,chain 1 LQQATRQEPFGQEHQG
14,3.04e-05,chain 1 LQQATRQEPTGQEHQG
15,0,chain 1 LQQATRQEPKGQEHQG
16,2.19e-05,chain 1 LQQATRQEPAGQEHQG
17,6.1e-05,chain 1 LQQATRQEPPGQEHQG
18,4.87e-05,chain 1 LQQATRQEPMGQEHQG
19,5.01e-05,chain 1 LQQATRQEPQGQEHKG
20,0,chain 1 LQQATEQEPQGQEHQG
21,0,chain 1 LQQATKQEPQGQEHQG
22,0,chain 1 LQQATLQEPQGQEHQG

# Variants of: B3
# Experiment: as above
# Settings: with TNKS ANK (TNKS 12 ANK repeats, residues 174-649); bait immobilised on MaxiSorp plates (10 µg), library pre-cleared on GST, 2 h binding at 4 °C, five washes; one round per day, days 1-4; value from days 2 and 3; keep out of graded; scale: average fractional NGS count over selection days 2 and 3
row,Variant,screen value
1,chain 1 PQLPHLQRSPPDWQSF,0
2,chain 1 PQLPHLQRSPPDAQSF,0
3,chain 1 PQLPHLQRSPPDQQSF,0
4,chain 1 PQLPHLQRSMPDGQSF,0.000103
5,chain 1 PQLPHLQRSRPDGQSF,5.9e-05
6,chain 1 PQLPHLQRSPLDGQSF,0
7,chain 1 PQLPHLQRSPTDGQSF,7.13e-05
8,chain 1 PQLPHLQRSPFDGQSF,3.04e-05
9,chain 1 PQLPHLQRSPIDGQSF,0
10,chain 1 PQLPHLQRSPEDGQSF,0
11,chain 1 PQLPHLQRSPHDGQSF,0
12,chain 1 PQLPHLQRSPMDGQSF,0
13,chain 1 PQLPHLQRSPQDGQSF,0
14,chain 1 PQLPHLQRSPSDGQSF,2.19e-05
15,chain 1 PQLPHLQRSPPTGQSF,6.11e-05
16,chain 1 PQLPHLQRSPPFGQSF,0
17,chain 1 PQLPHLQRSPPHGQSF,5.06e-05
18,chain 1 PQLPHLQRSPPYGQSF,3.32e-05
19,chain 1 PQLPHLQRSPPPGQSF,4.27e-05

row,Variant,screen value
1,chain 1 PQLRHLQRSPPDGQSF,3.21e-05
2,chain 1 PQLFHLQRSPPDGQSF,5.23e-05
3,chain 1 PQLKHLQRSPPDGQSF,0.000103
4,chain 1 PQLPHLQRSPPDGQSK,4.17e-05
5,chain 1 PQLPHLQRSPPDGQSS,9.92e-05
6,chain 1 PQGPHLQRSPPDGQSF,6.04e-05
7,chain 1 PQDPHLQRSPPDGQSF,9.07e-05
8,chain 1 PQWPHLQRSPPDGQSF,5.02e-05
9,chain 1 PQLPWLQRSPPDGQSF,7.66e-05
10,chain 1 PQLPELQRSPPDGQSF,9.9e-05
11,chain 1 PQLPMLQRSPPDGQSF,6.6e-05
12,chain 1 PQLPDLQRSPPDGQSF,5.12e-05
13,chain 1 PQLPALQRSPPDGQSF,0.000105
14,chain 1 PQLPNLQRSPPDGQSF,3.1e-05
15,chain 1 PQLPLLQRSPPDGQSF,0.000101
16,chain 1 PQLPHKQRSPPDGQSF,8.36e-05
17,chain 1 PQLPHIQRSPPDGQSF,6.25e-05
18,chain 1 PWLPHLQRSPPDGQSF,3.04e-05

# The remaining lines, values ahead:
row,screen value,Variant
1,9.21e-05,chain 1 PQLPHLQRSPPDGQGF
2,0.000104,chain 1 PQLPHLNRSPPDGQSF
3,3e-05,chain 1 PQLPHLPRSPPDGQSF
4,0.000135,chain 1 PQLPHLRRSPPDGQSF
5,7.17e-05,chain 1 PQLPHLQRGPPDGQSF
6,9.97e-05,chain 1 PQLPHLQRRPPDGQSF
7,3.92e-05,chain 1 PQLPHLQRSPPDGPSF
8,0.000114,chain 1 PQLPHLQRSPPDGWSF
9,6.15e-05,chain 1 PQLPHLQRSPPDGDSF
10,8.91e-05,chain 1 PQLPHLQSSPPDGQSF
11,0,chain 1 PQLPHLQFSPPDGQSF
12,0,chain 1 PQLPHLQASPPDGQSF
13,0,chain 1 PQLPHLQWSPPDGQSF
14,0,chain 1 PQLPHLQYSPPDGQSF
15,0,chain 1 PQLPHLQHSPPDGQSF
